Experimental data reported in publication PMC6771040, “Bispecific GRPR-Antagonistic Anti-PSMA/GRPR Heterodimer for PET and SPECT Diagnostic Imaging of Prostate Cancer” (Cancers, 2019).

Tests used:
[1] = tested on: PC3-PIP xenografts (PSMA and GRPR expressing); test: in vivo; design: species or system BALB/c nu/nu mice; conditions: female, BALB/c nu/nu, mouse, iv, 50 pmol/mouse
Method: (§1) All animal experiments were planned and performed in accordance with the Swedish national legislation on the protection of laboratory animals and the study plans were approved by the Ethics Committee for Animal Research in Uppsala. Euthanasia was performed by the intraperitoneal injection of a ketamine-xylazine (Ketalar-Rompun) solution (200 mg/kg ketamine/Ketalar and 20 mg/kg xylazine/Rompun), and all efforts were made to minimize suffering. Prior to implantation, female outbred BALB/c nu/nu mice (n = 30) were quarantined for 1 week. The average animal weight at the time of the experiment was 16 ± 1 g. Xenografts expressing both PSMA and GRPR were established by the subcutaneous injection of ~0.8 × 10^7 PC3-PIP cells/mouse. Tumors were grown for 7 days and the average tumor weight at the time of the experiment was 0.3 ± 0.1 g. Before the experiments, animals were randomized into groups of four. Blood, salivary glands, lung, liver, spleen, pancreas, stomach, small intestines, kidneys, muscle, bone, and tumor samples were collected for radioactivity measurements. The gastrointestinal tract with content and the rest of the carcass were also collected. The activity of samples was measured together with the injection standard.
(§2) To evaluate the biodistribution over time, three groups of mice were intravenously co-injected through the tail vein with ^111In-6 and ^68Ga-6 (300 kBq for ^68Ga-6 and 40 kBq for ^111In-6) and sacrificed 1, 3, and 24 h pi. The total injected peptide mass was adjusted to 50 pmol/mouse.

in vivo = test: in vivo; design: species or system BALB/c nu/nu mice; conditions: female, BALB/c nu/nu, mouse, iv, 50 pmol/mouse, total radioactivity, Tumor-to-organ ratio
Method: as §1, §2

PSMA [2] = conditions: 1 h pi; cited from earlier work
PSMA [3] = target: T1, PSMA (Homo sapiens, UniProt Q04609); test: Competitive binding assay (IC50) towards PSMA on PC3-PIP cells
T1 construct: expressed in transfected cells; host or cells: PC3-PIP cells (PC-3 derived, kept under puromycin selection; obtained from Dr. Warren Heston, Cleveland Clinic)
T1 sequence (Q04609 whole entry): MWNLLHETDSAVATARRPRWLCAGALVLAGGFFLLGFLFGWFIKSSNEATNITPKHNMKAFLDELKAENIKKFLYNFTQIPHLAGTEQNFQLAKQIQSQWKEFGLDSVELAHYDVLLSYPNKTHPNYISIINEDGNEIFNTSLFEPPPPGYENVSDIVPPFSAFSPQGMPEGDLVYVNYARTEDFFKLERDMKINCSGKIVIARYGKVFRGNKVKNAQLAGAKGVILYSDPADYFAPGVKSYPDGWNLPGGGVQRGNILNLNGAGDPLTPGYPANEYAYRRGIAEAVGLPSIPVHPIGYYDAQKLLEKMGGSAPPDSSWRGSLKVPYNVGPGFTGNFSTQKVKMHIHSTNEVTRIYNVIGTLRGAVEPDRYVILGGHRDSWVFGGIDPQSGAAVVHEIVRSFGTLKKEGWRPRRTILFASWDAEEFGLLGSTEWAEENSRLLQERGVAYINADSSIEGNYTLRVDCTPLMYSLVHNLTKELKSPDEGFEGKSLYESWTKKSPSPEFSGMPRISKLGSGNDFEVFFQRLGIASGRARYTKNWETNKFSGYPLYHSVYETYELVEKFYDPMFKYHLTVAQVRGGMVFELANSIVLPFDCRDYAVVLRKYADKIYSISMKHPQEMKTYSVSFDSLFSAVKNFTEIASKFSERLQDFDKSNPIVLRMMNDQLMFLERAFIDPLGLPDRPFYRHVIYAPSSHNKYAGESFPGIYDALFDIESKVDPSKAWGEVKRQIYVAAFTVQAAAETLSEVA
Method: (§3) The half-maximal inhibitory concentration (IC50) values towards PSMA and GRPR were determined for ^natIn-6 using PC3-PIP cells. ^111In-PSMA-617 was used as a displacement radioligand for PSMA and ^111In-DOTA-PEG2-RM26 was used for GRPR, respectively. Due to the presence of both targets on PC3-PIP cells, in each experiment, the secondary target was blocked with either 1 mM solution of NOTA-PEG6-RM26 or 2 mM PSMA-11. For comparison, the IC50 values were determined for the corresponding monomers towards PSMA and GRPR under the same experimental conditions. Briefly, cell monolayers were incubated with the radioligand (1 nM) at 4 °C for 5 h in the presence of increasing concentrations of ^natIn-loaded conjugates (0–540 nM for GRPR-targeting analogs, and 0–7500 nM for PSMA-targeting, respectively). Following incubation, cells were collected and the cell-associated radioactivity was measured in an automated gamma-counter. The IC50 values were calculated by nonlinear regression using GraphPad Prism software (GraphPad Software Inc., San Diego, CA, USA).

GRPR = GRPR (Homo sapiens, UniProt P30550)
Sequence of GRPR (P30550 whole entry): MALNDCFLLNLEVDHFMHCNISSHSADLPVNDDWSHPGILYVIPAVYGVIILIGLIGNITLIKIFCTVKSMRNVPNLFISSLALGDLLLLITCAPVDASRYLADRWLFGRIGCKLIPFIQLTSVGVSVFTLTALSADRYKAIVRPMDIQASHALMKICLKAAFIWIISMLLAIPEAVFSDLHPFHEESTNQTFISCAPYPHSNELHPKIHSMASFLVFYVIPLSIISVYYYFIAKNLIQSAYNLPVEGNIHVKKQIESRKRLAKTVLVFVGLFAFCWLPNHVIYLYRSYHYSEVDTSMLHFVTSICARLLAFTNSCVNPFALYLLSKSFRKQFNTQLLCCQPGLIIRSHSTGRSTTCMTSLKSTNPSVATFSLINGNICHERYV
Method: as §3

CC(C)C[C@H](NC(=O)C[C@H](O)[C@H](CC(C)C)NC(=O)[C@H](Cc1c[nH]cn1)NC(=O)CNC(=O)[C@@H](NC(=O)[C@H](C)NC(=O)[C@H](Cc1c[nH]c2ccccc12)NC(=O)[C@H](CCC(N)=O)NC(=O)[C@@H](Cc1ccccc1)NC(=O)CCOCCOCCOCCOCCOCCOCCNC(=O)[C@H](CCCCNC(=O)CN1CCN(CC(=O)O)CCN(CC(=O)O)CC1)NC(=O)CCCCCCCNC(=O)CC[C@H](NC(=O)N[C@@H](CCC(=O)O)C(=O)O)C(=O)O)C(C)C)C(N)=O [68Ga-6, metal not drawn]
Tumor-to-organ ratio, Blood ([1]; 1 h): 24±3 | Tumor-to-organ ratio, Bone ([1]; 1 h): 30±11 | Tumor-to-organ ratio, Kidneys ([1]; 1 h): 1.2±0.1 | Tumor-to-organ ratio, Liver ([1]; 1 h): 5.9±0.9 | Tumor-to-organ ratio, Lung ([1]; 1 h): 15±3 | Tumor-to-organ ratio, Muscle ([1]; 1 h): 78±28 | Tumor-to-organ ratio, Pancreas ([1]; 1 h): 4.4±0.6 | Tumor-to-organ ratio, Salivary glands ([1]; 1 h): 43±8 | Tumor-to-organ ratio, Small intestine ([1]; 1 h): 11±3 | Tumor-to-organ ratio, Spleen ([1]; 1 h): 16±4 | Tumor-to-organ ratio, Stomach ([1]; 1 h): 10±4 | Tumor-to-organ ratio, Blood ([1]; 3 h): 44±6 | Tumor-to-organ ratio, Bone ([1]; 3 h): 67±21 | Tumor-to-organ ratio, Kidneys ([1]; 3 h): 0.9±0.2 | Tumor-to-organ ratio, Liver ([1]; 3 h): 4±1 | Tumor-to-organ ratio, Lung ([1]; 3 h): 28±17 | Tumor-to-organ ratio, Muscle ([1]; 3 h): 128±57 | Tumor-to-organ ratio, Pancreas ([1]; 3 h): 18±6 | Tumor-to-organ ratio, Salivary glands ([1]; 3 h): 43±8 | Tumor-to-organ ratio, Small intestine ([1]; 3 h): 33±27 | Tumor-to-organ ratio, Spleen ([1]; 3 h): 11±1 | Tumor-to-organ ratio, Stomach ([1]; 3 h): 45±39

CC(C)C[C@H](NC(=O)C[C@H](O)[C@H](CC(C)C)NC(=O)[C@H](Cc1c[nH]cn1)NC(=O)CNC(=O)[C@@H](NC(=O)[C@H](C)NC(=O)[C@H](Cc1c[nH]c2ccccc12)NC(=O)[C@H](CCC(N)=O)NC(=O)[C@@H](Cc1ccccc1)NC(=O)CCOCCOCCOCCOCCOCCOCCNC(=O)[C@H](CCCCNC(=O)CN1CCN(CC(=O)O)CCN(CC(=O)O)CC1)NC(=O)CCCCCCCNC(=O)CC[C@H](NC(=O)N[C@@H](CCC(=O)O)C(=O)O)C(=O)O)C(C)C)C(N)=O [111In-6, metal not drawn]
tissue to tissue ratio at 1 h (in vivo; Blood): 30 ± 4 | tissue to tissue ratio at 24 h (in vivo; Blood): 192 ± 66 | tissue to tissue ratio at 3 h (in vivo; Bone): 52 ± 22 | tissue to tissue ratio at 24 h (in vivo; Bone): 19 ± 15 | tissue to tissue ratio at 1 h (in vivo; Kidneys): 1.2 ± 0.2 | tissue to tissue ratio at 3 h (in vivo; Kidneys): 1.4 ± 0.2 | tissue to tissue ratio at 24 h (in vivo; Kidneys): 0.6 ± 0.1 | tissue to tissue ratio at 24 h (in vivo; Liver): 4.8 ± 0.8 | tissue to tissue ratio at 24 h (in vivo; Lung): 34 ± 11 | tissue to tissue ratio at 1 h (in vivo; Muscle): 101 ± 25 | tissue to tissue ratio at 3 h (in vivo; Muscle): 210 ± 90 | tissue to tissue ratio at 24 h (in vivo; Muscle): 72 ± 59 | tissue to tissue ratio at 1 h (in vivo; Pancreas): 3.5 ± 0.8 | tissue to tissue ratio at 3 h (in vivo; Pancreas): 21 ± 1 | tissue to tissue ratio at 24 h (in vivo; Pancreas): 16 ± 2 | tissue to tissue ratio at 1 h (in vivo; Salivary glands): 72 ± 13 | tissue to tissue ratio at 24 h (in vivo; Salivary glands): 26 ± 4 | tissue to tissue ratio at 1 h (in vivo; Small intestine): 12 ± 4 | tissue to tissue ratio at 3 h (in vivo; Small intestine): 42 ± 9 | tissue to tissue ratio at 24 h (in vivo; Small intestine): 27 ± 6 | tissue to tissue ratio at 24 h (in vivo; Spleen): 30 ± 16 | tissue to tissue ratio at 1 h (in vivo; Stomach): 10 ± 3 | tissue to tissue ratio at 3 h (in vivo; Stomach): 29 ± 12 | tissue to tissue ratio at 24 h (in vivo; Stomach): 61 ± 52 | Tumor-to-organ ratio, Bone ([1]; 1 h): 75±50 | Tumor-to-organ ratio, Liver ([1]; 1 h): 22±4 | Tumor-to-organ ratio, Lung ([1]; 1 h): 32±3 | Tumor-to-organ ratio, Spleen ([1]; 1 h): 44±6 | Tumor-to-organ ratio, Blood ([1]; 3 h): 115±13 | Tumor-to-organ ratio, Liver ([1]; 3 h): 20±2 | Tumor-to-organ ratio, Lung ([1]; 3 h): 64±30 | Tumor-to-organ ratio, Salivary glands ([1]; 3 h): 93±10 | Tumor-to-organ ratio, Spleen ([1]; 3 h): 59±16

O=C([O-])CN(CCN(CC(=O)[O-])Cc1cc(CCC(=O)NCCCCCC(=O)NCCCC[C@H](NC(=O)N[C@@H](CCC(=O)O)C(=O)O)C(=O)O)ccc1[O-])Cc1cc(CCC(=O)O)ccc1[O-].[68Ga+3].[OH3+] [^68Ga-PSMA-11]
activity uptake in the kidneys relative to tumors (PSMA [2]): 20 fold

O=C([O-])CN1CCN(CC(=O)[O-])CCN(CC(=O)NC[C@H]2CC[C@H](C(=O)N[C@@H](Cc3ccc4ccccc4c3)C(=O)NCCCC[C@H](NC(=O)N[C@@H](CCC(=O)O)C(=O)O)C(=O)O)CC2)CCN(CC(=O)[O-])CC1.[68Ga+3] [^68Ga-PSMA-617]
activity uptake in the kidneys relative to tumors (PSMA [2]): 8 fold

CC(C)C[C@H](NC(=O)C[C@H](O)[C@H](CC(C)C)NC(=O)[C@H](Cc1c[nH]cn1)NC(=O)CNC(=O)[C@@H](NC(=O)[C@H](C)NC(=O)[C@H](Cc1c[nH]c2ccccc12)NC(=O)[C@H](CCC(N)=O)NC(=O)[C@@H](Cc1ccccc1)NC(=O)CCOCCOCCOCCOCCOCCOCCNC(=O)[C@H](CCCCNC(=O)CN1CCN(CC(=O)O)CCN(CC(=O)O)CC1)NC(=O)CCCCCCCNC(=O)CC[C@H](NC(=O)N[C@@H](CCC(=O)O)C(=O)O)C(=O)O)C(C)C)C(N)=O [compound 6, Glu-Urea-Glu-Aoc-Lys(NOTA)-(PEG)6-RM26]
fold change of IC50 for PSMA, heterodimer vs monomer (PSMA [3]; dimerization effect): 5 fold

CC(C)C[C@H](NC(=O)C[C@H](O)[C@H](CC(C)C)NC(=O)[C@H](Cc1c[nH]cn1)NC(=O)CNC(=O)[C@@H](NC(=O)[C@H](C)NC(=O)[C@H](Cc1c[nH]c2ccccc12)NC(=O)[C@H](CCC(N)=O)NC(=O)[C@@H](Cc1ccccc1)NC(=O)CCOCCOCCOCCOCCOCCOCCNC(=O)[C@H](CCCCNC(=O)CN1CCN(CC(=O)O)CCN(CC(=O)O)CC1)NC(=O)CCCCCCCNC(=O)CC[C@H](NC(=O)N[C@@H](CCC(=O)O)C(=O)O)C(=O)O)C(C)C)C(N)=O [natIn-6, metal not drawn]
fold change of IC50 for GRPR, heterodimer vs monomer (GRPR; dimerization effect): 10 fold | IC50 (GRPR; read-out: IC50 towards GRPR, PC3-PIP cells, 4 °C, 5 h, PSMA blocked, natIn-loaded conjugates): 4 ± 1 nM | IC50 (PSMA [3]; read-out: IC50 towards PSMA, PC3-PIP cells, 4 °C, 5 h, radioligand 111In-PSMA-617, GRPR blocked, natIn-loaded conjugates): 824 ± 230 nM
